Patent US7960115B2, “DNA binding protein” (Wright State University, priority 2001, dated 2011)

T1: DUE-B binding to dsDNA derived from the DUE sequence (Homo sapiens, UniProt Q8TEA8)
T1 construct: 6his (N); V5 (N); made in house; host or cells: baculovirus / SF9 insect cells
T1 sequence (Q8TEA8 1-209): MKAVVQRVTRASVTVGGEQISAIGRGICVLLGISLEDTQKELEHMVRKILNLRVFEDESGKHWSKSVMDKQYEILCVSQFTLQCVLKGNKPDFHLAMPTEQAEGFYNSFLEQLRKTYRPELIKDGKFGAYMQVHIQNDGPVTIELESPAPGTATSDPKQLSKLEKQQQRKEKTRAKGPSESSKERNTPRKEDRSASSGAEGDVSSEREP


Key:
[1] = target: T1, DUE-B binding to dsDNA derived from the DUE sequence; test: Fluorescence polarization assay of DUE-B binding to dsDNA
From the text: Described herein is the first generation of a novel assay for determining the effects of molecules on the association of DUE-B with double stranded DNA (dsDNA). This assay uses fluorescence polarization to measure the interaction of DUE-B with dsDNA. This assay consists of 4 components: • a) a dsDNA derived from the DUE sequence:
• Both the sense and antisense strands are labeled with FITC at the 3′ end using a 6 carbon spacer. • b) Purified DUE-B. Human DUE-B tagged at the amino terminus with the 6his and V5 tags is synthesized in baculovirus and purified using Ni^2+-Sepharose™ chromatography. • c) Reaction buffer (1×): […] Tris HCl (pH 7.5), 800 mM NaCl, 10 mM EDTA, 100 mM β-mercaptoethanol, 1% (w/v) Tween-20™. • d) Fluorescence polarization plate reader (Tecan Polarion™ or other equivalent device)
A mastermix is prepared consisting of 1× reaction buffer, 2 nM labeled oligo and 0.125 or 0.250 ug DUE-B per 100 ul of mastermix. Compounds (in this case steroids) are added to the bottom of a 96 well plate. 100 ul of mastermix is added to each well and allowed to equilibrate for 30 sec. Fluorescence polarization is then measured.
In FIG. 23A, the effect of increasing concentrations of DUE-B on the polarization of dsDNA was assessed. As expected, polarization of the dsDNA becomes saturated as the DUE-B protein concentration increases. […]

[2] = ATPase activity by thin layer chromatography; assay type: biochemical
Procedure: In FIG. 11, DUE-B expressed in baculovirus infected insect cells was chromotographed as in FIG. 8. To locate the eluted DUE-B, fractions were assayed by ELISA using DUE-B antibody or 6his antibody. ATPase activity was monitored by thin layer chromatography of alternate fractions incubated with gamma-^32P-ATP. […] In FIG. 12, time courses of ATPase activity were measured for three concentrations of DUE-B protein.
Purified DUE-B (200-1000 ng) expressed in bacteria or insect cells, or cell extracts from HeLa cells (˜500 ng) or Xenopus oocytes (˜500 ng), were chromatographed on a one-meter Sephacryl™ S-200 column. Protein elution was monitored by Western blot or by ELISA using antibodies to DUE-B or the his6 tag. ATPase activity was monitored by thin layer chromatography on PEI cellulose (Patrick, S. M., et al., Biochem. Biophys. Acta 1354:279-290, 1997). RNA was isolated using an RNAeasy kit (Qiagen) and DUE-B mRNA expression was monitored by Northern blotting of total RNA electrophoresed on denaturing formaldehyde/agarose gels using a DUE-B cDNA probe labeled with alpha-^32P-dCTP by random primer extension.

[3] = tested on: DNA replication in Xenopus oocyte extract; test: Replication in Xenopus oocyte extracts; assay type: biochemical, Xenopus laevis

| Molecule | effect on the dsDNA binding of DUE-B on retest ([1]; retest in two different concentrations of DUE-B, FIG. 24B) | increase in polarization of dsDNA by DUE-B ([1]; steroid at 10 uM, FIG. 24A) [%] | ATPase activity ([2]; baculovirus expressed DUE-B, FIG. 12) | ATP hydrolyzed ([2]; present assay conditions) | effect on DNA replication, time course ([3]; double stranded DNA preincubated in extract, DUE-B added with alpha-32P-dCTP, FIG. 18A) | effect on replication of single stranded DNA ([3]; oocyte extract, FIG. 20D) | effect on replication of sperm chromatin ([3]; preincubated 30' with the extract versus added simultaneously with sperm chromatin, FIG. 19) | effect on MCM7 loading (pre-RC formation) on chromatin ([3]; sperm chromatin, anti-MCM7 immunoblot, FIG. 20C) |
| --- | --- | --- | --- | --- | --- | --- | --- | --- |
| C[C@]12CC[C@@H]3c4ccc(O)cc4CC[C@H]3[C@@H]1CC(O)C2O (some centres unmarked) [Steroid E2850, 1,3,5(10)-estratrien-3,16,17-triol] | stimulatory effect of E2850 was duplicated | 100 | – | – | – | – | – | – |
| DUE-B: human DNA Unwinding Element binding protein (SEQ ID NO:2), baculovirus expressed, binds the c-myc replication origin DUE (protein, listed as Homo sapiens) MKAVVQRVTRASVTVGGEQISAIGRGICVLLGISLEDTQKELEHMVRKILNLRVFEDESGKHWSKSVMDKQYEILCVSQFTLQCVLKGNKPDFHLAMPTEQAEGFYNSFLEQLRKTYRPELIKDGKFGAYMQVHIQNDGPVTIELESPAPGTATSDPKQLSKLEKQQQRKEKTRAKGPSESSKERNTPRKEDRSASSGAEGDVSSEREP | – | – | approximately 30 fmol gamma-32P-ATP hydrolyzed | > 0.5 fmol ATP per minute per fmol protein | transiently inhibited DNA replication | does not inhibit replication of single stranded DNA | more effective at inhibiting replication | does not inhibit MCM7 loading |
